Assay results as given in patent publication US20210130473A1 (SILVERBACK THERAPEUTICS, published 2021).

B1: hzL4L-7 (antibody, IgG1, V domains shown)
VH: QVQLQESGPGLVKPSQTLSLTCTVSGYSISSDYAWNWIRQHPGKGLEWIGYISYSGSTRYNPSLKSRVTITRDTSKNQFSLKLSSVTAADTAVYYCARRYRYDEGYGMDYWGQGTTVTVSS
VL: DIQMTQSPSSLSASVGDRVTITCRASENIYSNLAWYQQKPGKAPKLLIYAATNLADGVPSRFSGSGSGTDFTLTISSLQPEDFATYYCQHFWGTPPWTFGGGTKVEIK
notes: IgG1, kappa
B2: H8K (antibody, V domains shown)
VH: DVQLQESGPGLVKPSQSLSLTCTVTGFSITSDYAWNWIRQFPGNQLEWMGYRSYRGSTSYNPSLKSRISITRDTSKNQFFLQLNSVTTEDTATYYCARRGYYGSSSHWYFDVWGAGTTVTVSS
VL: DIQMTQSPASLSASVGETVTITCRASENIYSYLAWYQQKQGKSPQLLVYNAKTLAEGVPSRFSGSGSGTQFSLKINSLQPEDFGSYYCQHHYGTPLTFGSGTKLELK
notes: parental mouse hybridoma antibody; also called mAb H8K
B3: L4L (antibody, V domains shown)
VH: DVQLQESGPGLVKPSQSLSLTCTVTGYSITSDYAWNWIRQFPGNKLEWMGYISYSGSTRYNPSLKSRISITRDTSKNQFFLQLNSVTTEDTATYYCARRYRYDEGYGMDYWGQGTSVTVSS
VL: DIQMTQSPASLSVFVGEIVTITCRASENIYSNLAWYQQKQGKSPQLLVYAATNLADGVPSRFTGSGSGTQFSLKINSLQSEDFGNYYCQHFWGTPPWTFGGGTKLEIK
notes: parental mouse hybridoma antibody; also called mAb L4L
B4: hzH8K-1 (antibody, IgG1, V domains shown)
VH: QVQLQESGPGLVKPSQTLSLTCTVSGGSISSDYAWNWIRQHPGKGLEWIGYRSYRGSTSYNPSLKSRVTISVDTSKNQFSLKLSSVTAADTAVYYCARRGYYGSSSHWYFDVWGQGTTVTVSS
VL: DIQMTQSPSSLSASVGDRVTITCRASENIYSYLAWYQQKPGKAPKLLIYNAKTLAEGVPSRFSGSGSGTDFTLTISSLQPEDFATYYCQHHYGTPLTFGGGTKVEIK
notes: IgG1, kappa
B5: J4F (antibody, V domains shown)
VH: QVQLQQSGDDLVKPGASVKLSCKASGYTFTSYWINWIKQRPGQGLEWIGRIVPGSGSTYYNEMFKDKATLTVDTSSSTAYIQLSSLSSEDSAVYFCARKPNFDVWGAGTTVTVSS
VL: DIVMTQSQKFMSTSVGDRVSVTCKASQNVGTNVAWYQQKPGQSPKAVIYSASYRFSGVPDRLTGSGSGTDFTLTITNVQSEDLAEYFCQQYNSYPLTFGAGTKLELK
notes: parental mouse hybridoma antibody; also called mAb J4F
B6: G2D (antibody, V domains shown)
VH: EVQLQQSGPELVKPGASVKISCKASGYSFTGYYMHWVKQSHVKSLEWIGRINPNNGATNYNQNFKDKASLTVDKSSSTAYMEFHSLTSEDSAVYYCTSVNFYYWGQGTTLTVSS
VL: DIKMTQSPSSMYASLGERVTITCKASQVINSYLSWFQQKPGKSPETLIYRANTLVDGVPSRFSGSGSGQDYSLTISSLEYEDLGIYYCLQYAEFPYTFGGGTKLEIK
notes: parental mouse hybridoma antibody; also called mAb G2D

Key:
[1] = molecular target: T1, Cynomolgus macaque ASGR1 on CHO-S cells (Cynomolgus macaque); assay: Guava flow cytometry on CHO-S cells expressing cynomolgus ASGR1 (repeat of Table 15)
T1 construct: whole, on cells; also called Cynomologous ASGR1
Experimental: (§1) Anti-human ASGR1 antibodies of this disclosure were examined for cross-reactivity with Cynomolgus macaque and rat ASGR1. Briefly, sequence encoding Cynomolgus macaque or rat ASGR1 was transiently transfected into CHO-S cells. Transfected cells were before performing cell binding assay. A total of about 1.5×10⁴ transfected cells/well were added to 96-well V-bottom assay plate, incubated at 37° C., 5% CO2 for 48-72 hours, and then washed with culture medium before adding 100 μl of each ASGR1 antibody at different concentrations starting from 100 nM and 3-fold dilutions to a total of eight wells. The cells with antibody were incubated for 40 minutes at 4° C., then washed three times with 200 μl of fresh culture medium. To each well was added 50 μl PE conjugated goat anti-human Fc (SouthemBiotech) at 1:200 dilution in culture medium and then incubated at 4° C. for 20 minutes. After washing the plate once, the treated cells were resuspended in 200 μl culture medium and then the stained cells were analyzed on GUAVA® using Incyte software.

rat ASGR1 on CHO-S cells [2] = molecular target: T2, rat ASGR1 on CHO-S cells (rat, UniProt P02706 1-284); assay: Guava flow cytometry on CHO-S cells expressing rat ASGR1
T2 construct: whole, on cells
T2 sequence (looked up): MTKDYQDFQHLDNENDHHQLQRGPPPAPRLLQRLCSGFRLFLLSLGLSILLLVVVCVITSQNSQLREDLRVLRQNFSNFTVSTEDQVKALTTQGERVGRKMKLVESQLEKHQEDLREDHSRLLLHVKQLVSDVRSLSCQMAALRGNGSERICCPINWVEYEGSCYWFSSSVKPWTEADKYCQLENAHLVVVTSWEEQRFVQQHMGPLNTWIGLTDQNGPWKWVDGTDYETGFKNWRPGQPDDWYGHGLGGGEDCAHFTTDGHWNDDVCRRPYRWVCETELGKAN

[3] = molecular target: T1, Cynomolgus macaque ASGR1 on CHO-S cells; assay: Guava flow cytometry on CHO-S cells expressing cynomolgus ASGR1
Experimental: as §1

[4] = molecular target: T3, His-tagged human ASGR1 extracellular domain (human, UniProt P07306 62-291); assay: Octet, His-tagged ASGR1 ECD on Penta-His sensors; N = association not sensitive to Ca2+ (binds also without calcium)
T3 construct: extracellular domain; also called His-tagged human ASGR1 ECD; human ASGR1 ECD; not shown: His tag
T3 sequence (looked up): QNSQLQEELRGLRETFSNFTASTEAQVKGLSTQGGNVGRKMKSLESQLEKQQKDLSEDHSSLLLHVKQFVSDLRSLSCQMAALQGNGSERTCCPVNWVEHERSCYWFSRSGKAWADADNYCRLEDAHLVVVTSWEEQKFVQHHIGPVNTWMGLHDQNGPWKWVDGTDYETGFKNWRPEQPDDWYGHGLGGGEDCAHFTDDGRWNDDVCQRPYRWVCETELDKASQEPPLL
Experimental: Analysis of ASGR1 antibody binding to human ASGR1 ECD was performed using the OCTET® Red 96 instrument and analyzed using the OCTET®Data Analysis Software 9.0 (ForteBio). His-tagged human ASGR1 ECD was immobilized to OCTET® Penta-His biosensors and ASGR1 antibodies were subjected to avidity binding under the conditions described above. Association with the ASGR1 ECD was measured by the rate of and increase in magnitude of signal response at a given antibody concentration. Dissociation from the ASGR1 ECD was measured the rate of loss in signal upon removal of the antibody and further incubation with or without Ca²⁺.

[5] = molecular target: T4, human Fc-fused human ASGR1 extracellular domain (human, UniProt P07306 62-291); assay: Octet binning, hFc-ASGR1 ECD on AHC sensors; competitor: ASGR1 mAb-A
T4 construct: extracellular domain; also called human Fc-fused ASGR1 ECD; not shown: human Fc
T4 sequence (looked up): T3 sequence (looked up)
Experimental: The interactions of the anti-ASGR1 antibodies of this disclosure and control mAbs with human ASGR1 ECD were analyzed using the OCTET® Data Analysis Software 9.0 (ForteBio).

[6] = molecular target: T5, human ASGR1 (asialoglycoprotein receptor 1) on cells (human, UniProt P07306 1-291); assay: flow cytometry on HepG2 cells, anti-human IgG PE secondary, MFI (Geo Mean)
T5 construct: whole, on cells; also called HepG2 cells; CHO-S cells transfected with human ASGR1 full length DNA
T5 sequence (looked up): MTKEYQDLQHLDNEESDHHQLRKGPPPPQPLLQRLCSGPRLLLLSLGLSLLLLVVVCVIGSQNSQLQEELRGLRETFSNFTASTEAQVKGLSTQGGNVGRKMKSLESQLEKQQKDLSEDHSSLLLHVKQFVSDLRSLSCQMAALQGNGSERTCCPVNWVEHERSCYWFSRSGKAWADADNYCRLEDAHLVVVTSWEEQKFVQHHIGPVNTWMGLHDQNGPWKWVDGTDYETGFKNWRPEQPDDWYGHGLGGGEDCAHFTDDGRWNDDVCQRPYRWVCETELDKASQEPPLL
Experimental: Briefly, 5×10⁴ HepG2 cells/well were contacted with titrating concentrations of anti-ASGR1 antibodies in FACS Buffer (FB: PBS+2% FBS+1 mM CaCl₂)) for 30 minutes at 4° C. Cells were washed twice in FB, then incubated in anti-human IgG PE secondary for 30 minutes at 4° C. Cells were washed twice in FB, then analyzed by flow cytometry.

rat ASGR1 on CHO-S cells [7] = molecular target: T2, rat ASGR1 on CHO-S cells; assay: Guava flow cytometry on CHO-S cells expressing rat ASGR1; remark: listed apart in the source
Experimental: as §1

rat ASGR1 on CHO-S cells [8] = molecular target: T2, rat ASGR1 on CHO-S cells; assay: Guava flow cytometry on CHO-S cells expressing rat ASGR1 (repeat of Table 16)
Experimental: as §1, with “Briefly,” for “Anti-human ASGR1 antibodies of this disclosure were examined for cross-reactivity with Cynomolgus macaque and rat ASGR1. Briefly,”, “(SouthernBiotech)” for “(SouthemBiotech)”
as §1

rat CLEC10A = molecular target: T6, rat CLEC10A (rat, UniProt P49301 59-306, limits assumed); assay: not described
T6 construct: the assay is not described
T6 sequence (looked up): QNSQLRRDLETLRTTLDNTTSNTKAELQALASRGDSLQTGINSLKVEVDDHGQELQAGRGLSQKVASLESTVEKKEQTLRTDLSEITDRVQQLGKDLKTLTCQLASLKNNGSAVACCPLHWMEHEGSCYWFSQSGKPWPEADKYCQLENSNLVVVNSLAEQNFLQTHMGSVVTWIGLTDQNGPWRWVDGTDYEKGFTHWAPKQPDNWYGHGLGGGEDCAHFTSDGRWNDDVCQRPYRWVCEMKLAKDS

Binder | EC50 [1] | binding result (rat ASGR1 on CHO-S cells [2]) | EC50 [3] | binding result [4] | binding result [5] | binding result [6] | EC50 (rat ASGR1 on CHO-S cells [7]) | EC50 (rat ASGR1 on CHO-S cells [8]) | EC50 (read off the curve) [6] | binding result (rat CLEC10A)
B1 | 390 pM | no binding (tested: 100 nM highest concentration) | 390 pM | binds |  |  |  |  |  | 
B2 |  |  |  |  | binds | binds |  |  |  | 
B3 |  |  |  |  | binds | binds |  |  |  | 
B4 | 660 pM | no binding (tested: 100 nM highest concentration) | 660 pM |  |  |  |  |  |  | 
B5 | 670 pM |  | 670 pM |  |  |  | 620 pM | 620 pM | ~0.3 µg/mL | 
B6 | 470 pM |  | 470 pM |  |  |  | 370 pM | 370 pM | ~0.2 µg/mL | no binding
